pKd: −log10 of the molar value.
Biological target: human recombinant SNAP25 (Synaptosomal Associated Protein 25) (human) (UniProt P60880)
Assay: SPR

human recombinant SNAP25 (Synaptosomal Associated Protein 25) (human), sequence (P60880 whole entry): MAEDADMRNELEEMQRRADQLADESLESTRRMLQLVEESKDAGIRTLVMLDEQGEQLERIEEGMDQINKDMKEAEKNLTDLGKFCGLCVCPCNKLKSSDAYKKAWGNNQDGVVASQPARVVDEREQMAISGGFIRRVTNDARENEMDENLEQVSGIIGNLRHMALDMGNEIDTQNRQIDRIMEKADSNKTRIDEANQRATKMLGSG

pKd: 5.14
Substance: Human type V Collagen (from UniProt P20908 38-1605; P05997 27-1229) (complex)

— paper PMC11429891
